{"source": "paper PMC3872242", "about": "(Journal of molecular biology, 2013)", "molecular_target": "T1, Human 14-3-3γ (human, UniProt P61981 2-247)", "T1 sequence": "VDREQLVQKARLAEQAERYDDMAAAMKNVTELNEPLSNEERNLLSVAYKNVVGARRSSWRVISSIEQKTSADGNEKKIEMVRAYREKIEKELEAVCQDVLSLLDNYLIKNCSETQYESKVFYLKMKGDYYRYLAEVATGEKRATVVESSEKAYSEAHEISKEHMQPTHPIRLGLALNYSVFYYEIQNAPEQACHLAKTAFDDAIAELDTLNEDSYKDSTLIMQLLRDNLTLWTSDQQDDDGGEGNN", "test": "crystal structure", "note": "Square brackets hold non-standard residues; d marks the D form. Ends that are not written are not given here. pS = N[C@@H](COP(=O)(O)O)C(=O)O"}
{"binder": "MPTPDATTPQAKGFRRAV[pS]ELDAKQAEAIMSPRFIGRRQSLIE", "note": "[THp-(1-43), Ser19-phosphorylated N-terminal peptide of human tyrosine hydroxylase]", "values": [{"measurement": "binding result", "value": "binds"}]}
